Source: article PMC7615647, “Visualization of direct and diffusion-assisted RAD51 nucleation by full-length human BRCA2 protein” (Molecular cell, 2023)

B1: RAD51 C319S labelled with Alexa Fluor 647 C2 maleimide (natural protein, human, UniProt Q06609 1-339, looked up)
chain: MAMQMQLEANADTSVEEESFGPQPISRLEQCGINANDVKKLEEAGFHTVEAVAYAPKKELINIKGISEAKADKILAEAAKLVPMGFTTATEFHQRRSEIIQITTGSKELDKLLQGGIETGSITEMFGEFRTGKTQICHTLAVTCQLPIDRGGGEGKAMYIDTEGTFRPERLLAVAERYGLSGSDVLDNVAYARAFNTDHQTQLLYQASAMMVESRYALLIVDSATALYRTDYSGRGELSARQMHLARFLRMLLRLADEFGVAVVITNQVVAQVDGAAMFAADPKKPIGGNIIAHASTTRLYLRKGRGETRICKIYDSPSLPEAEAMFAINADGVGDAKD
modifications: Alexa Fluor 647 C2 maleimide (labelled residue not stated; protein to dye ratio 0.9-1.0)
notes: RAD51 recombinase, human, C319S variant; also called RAD51(A647); RAD-51(A647); source: E. coli BLR(DE3)pLysS (pET11c-RAD51 C319S), purified (ammonium sulphate, Q Sepharose, Heparin, Mono Q), then labelled
B2: BRCA2-C (residues 966-1596, 2477-3194, 3265-3330)-eGFP (domain or fragment, human, UniProt P51587 966-1596, looked up)
chain: TLGQDLKSDISLNIDKIPEKNNDYMNKWAGLLGPISNHSFGGSFRTASNKEIKLSEHNIKKSKMFFKDIEEQYPTSLACVEIVNTLALDNQKKLSKPQSINTVSAHLQSSVVVSDCKNSHITPQMLFSKQDFNSNHNLTPSQKAEITELSTILEESGSQFEFTQFRKPSYILQKSTFEVPENQMTILKTTSEECRDADLHVIMNAPSIGQVDSSKQFEGTVEIKRKFAGLLKNDCNKSASGYLTDENEVGFRGFYSAHGTKLNVSTEALQKAVKLFSDIENISEETSAEVHPISLSSSKCHDSVVSMFKIENHNDKTVSEKNNKCQLILQNNIEMTTGTFVEEITENYKRNTENEDNKYTAASRNSHNLEFDGSDSSKNDTVCIHKDETDLLFTDQHNICLKLSGQFMKEGNTQIKEDLSDLTFLEVAKAQEACHGNTSNKEQLTATKTEQNIKDFETSDTFFQTASGKNISVAKESFNKIVNFFDQKPEELHNFSLNSELHSDIRKNKMDILSYEETDIVKHKILKESVPVGTGNQLVTFQGQPERDEKIKEPTLLGFHTASGKKVKIAKESLDKVKNLFDEKEQGTSEITSFSHQWAKTLKYREACKDLELACETIEITAAPKCKEMQNPLDLITSLQNARDIQDMRIKKKQRQRVFPQPGSLYLAKTSTLPRISLKAAVGGQVPSACSHKQLYTYGVSKHCIKINSKNAESFQFHTEDYFGKESLWTGKGIQLADGGWLIPSNDGKAGKEEFYRALCDTPGVDPKLISRIWVYNHYRWIIWKLAAMECAFPKEFANRCLSPERVLLQLKYRYDTEIDRSRRSAIKKIMERDDTAAKTLVLCVSDIISLSANISETSSNKTSSADTQKVAIIELTDGWYAVKAQLDPPLLAVLKNGRLTVGQKIILHGAELVGSPDACTPLEAPESLMLKISANSTRPARWYTKLGFFPDPRPFPLPLSSLFSDGGNVGCVDVIIQRAYPIQWMEKTSSGLYIFRNEREEEKEAAKYVEAQQKRLEALFTKIQEEFEEHEENTTKPYLPSRALTRQQVRALQDGAELYEAVKNAADPAYLEGYFSEEQLRALNNHRQMLNDKKQAQIQLEIRKAMESAEQKEQGLSRDVTTVWKLRIVSYSKKEKDSVILSIWRPSSDLYSLLTEGKRYRIYHLATSKSKSKSERANIQLAATKKTQYQQLPVSDEILFQIYQPREPLHFSKFLDPDFQPSCSEVDLIGFVVSVVKKTGLAPFVYLSDECYNLLAIKFWIDLNEDIIKPHMLIAASNLQWRPESKSGLLTLFAGDFSVFSASPKEGHFQETFNKMKNTVENIDILCNEAENKLMHILHANDPKWSTPCKKRRALDFLSRLPLPPPVSPICTFVSPAAQKAFQPPRSCGTKYETPIKKKELNSPQMTPFKKFNE
notes: BRCA2, human, residues 966-1596 (BRC repeats 1-4); BRCA2, human, residues 2477-3194 (C-DBD); BRCA2, human, residues 3265-3330 (TR2); No linkers between the three stretches are stated; source: High Five insect cells, baculovirus (pFBDM-BRCA2-C, MultiBac), purified (StrepTrap, Heparin); not shown: eGFP, C-terminal, kept
B3: 167mer 3' tailed DNA (mixed)
DNA 1: CTGCTTTATCAAGATAATTTTTCGACTCATCAGAAATATCCGTTTCCTATATTTATTCCTATTATGTTTTATTCATTTACTTATTCTTTATGTTCATTTTTTATATCCTTTACTTTATTTTCTCTGTTTATTCATTTACTTATTTTGTATTATCCTTATCTTATTTA
DNA 2: CGGATATTTCTGATGAGTCGAAAAATTATCTTGATAAAGCAG

Legend:
[1] = system: RAD51(A647) (Homo sapiens); experiment: single-molecule optical tweezers/confocal; conditions: biotinylated hairpin end caps, EMSA: 4 nM Cy5-DNA, 20 mM HEPES pH 7.5, 1 mM MgCl2, 1 mM TCEP, 100 mM KCl, 24 C, 5 min, single-molecule (Fig 1): 100 mM NaCl, 2 mM MgCl2, 1 mM CaCl2, 2 mM ATP …
[2] = molecular target: BRCA2-eGFP;RAD51(A647) (Homo sapiens;Homo sapiens) (UniProt P51587); experiment: single-molecule optical tweezers/confocal; conditions: EMSA: 4 nM Cy5-DNA, 20 mM HEPES pH 7.5, 1 mM MgCl2, 1 mM TCEP, 100 mM KCl, 24 C, 5 min, single-molecule (Fig 1): 100 mM NaCl, 2 mM MgCl2, 1 mM CaCl2, 2 mM ATP …
BRCA2-eGFP;RAD51(A647) (Homo sapiens;Homo sapiens), sequence (P51587 whole entry, looked up, the tested form may be a part): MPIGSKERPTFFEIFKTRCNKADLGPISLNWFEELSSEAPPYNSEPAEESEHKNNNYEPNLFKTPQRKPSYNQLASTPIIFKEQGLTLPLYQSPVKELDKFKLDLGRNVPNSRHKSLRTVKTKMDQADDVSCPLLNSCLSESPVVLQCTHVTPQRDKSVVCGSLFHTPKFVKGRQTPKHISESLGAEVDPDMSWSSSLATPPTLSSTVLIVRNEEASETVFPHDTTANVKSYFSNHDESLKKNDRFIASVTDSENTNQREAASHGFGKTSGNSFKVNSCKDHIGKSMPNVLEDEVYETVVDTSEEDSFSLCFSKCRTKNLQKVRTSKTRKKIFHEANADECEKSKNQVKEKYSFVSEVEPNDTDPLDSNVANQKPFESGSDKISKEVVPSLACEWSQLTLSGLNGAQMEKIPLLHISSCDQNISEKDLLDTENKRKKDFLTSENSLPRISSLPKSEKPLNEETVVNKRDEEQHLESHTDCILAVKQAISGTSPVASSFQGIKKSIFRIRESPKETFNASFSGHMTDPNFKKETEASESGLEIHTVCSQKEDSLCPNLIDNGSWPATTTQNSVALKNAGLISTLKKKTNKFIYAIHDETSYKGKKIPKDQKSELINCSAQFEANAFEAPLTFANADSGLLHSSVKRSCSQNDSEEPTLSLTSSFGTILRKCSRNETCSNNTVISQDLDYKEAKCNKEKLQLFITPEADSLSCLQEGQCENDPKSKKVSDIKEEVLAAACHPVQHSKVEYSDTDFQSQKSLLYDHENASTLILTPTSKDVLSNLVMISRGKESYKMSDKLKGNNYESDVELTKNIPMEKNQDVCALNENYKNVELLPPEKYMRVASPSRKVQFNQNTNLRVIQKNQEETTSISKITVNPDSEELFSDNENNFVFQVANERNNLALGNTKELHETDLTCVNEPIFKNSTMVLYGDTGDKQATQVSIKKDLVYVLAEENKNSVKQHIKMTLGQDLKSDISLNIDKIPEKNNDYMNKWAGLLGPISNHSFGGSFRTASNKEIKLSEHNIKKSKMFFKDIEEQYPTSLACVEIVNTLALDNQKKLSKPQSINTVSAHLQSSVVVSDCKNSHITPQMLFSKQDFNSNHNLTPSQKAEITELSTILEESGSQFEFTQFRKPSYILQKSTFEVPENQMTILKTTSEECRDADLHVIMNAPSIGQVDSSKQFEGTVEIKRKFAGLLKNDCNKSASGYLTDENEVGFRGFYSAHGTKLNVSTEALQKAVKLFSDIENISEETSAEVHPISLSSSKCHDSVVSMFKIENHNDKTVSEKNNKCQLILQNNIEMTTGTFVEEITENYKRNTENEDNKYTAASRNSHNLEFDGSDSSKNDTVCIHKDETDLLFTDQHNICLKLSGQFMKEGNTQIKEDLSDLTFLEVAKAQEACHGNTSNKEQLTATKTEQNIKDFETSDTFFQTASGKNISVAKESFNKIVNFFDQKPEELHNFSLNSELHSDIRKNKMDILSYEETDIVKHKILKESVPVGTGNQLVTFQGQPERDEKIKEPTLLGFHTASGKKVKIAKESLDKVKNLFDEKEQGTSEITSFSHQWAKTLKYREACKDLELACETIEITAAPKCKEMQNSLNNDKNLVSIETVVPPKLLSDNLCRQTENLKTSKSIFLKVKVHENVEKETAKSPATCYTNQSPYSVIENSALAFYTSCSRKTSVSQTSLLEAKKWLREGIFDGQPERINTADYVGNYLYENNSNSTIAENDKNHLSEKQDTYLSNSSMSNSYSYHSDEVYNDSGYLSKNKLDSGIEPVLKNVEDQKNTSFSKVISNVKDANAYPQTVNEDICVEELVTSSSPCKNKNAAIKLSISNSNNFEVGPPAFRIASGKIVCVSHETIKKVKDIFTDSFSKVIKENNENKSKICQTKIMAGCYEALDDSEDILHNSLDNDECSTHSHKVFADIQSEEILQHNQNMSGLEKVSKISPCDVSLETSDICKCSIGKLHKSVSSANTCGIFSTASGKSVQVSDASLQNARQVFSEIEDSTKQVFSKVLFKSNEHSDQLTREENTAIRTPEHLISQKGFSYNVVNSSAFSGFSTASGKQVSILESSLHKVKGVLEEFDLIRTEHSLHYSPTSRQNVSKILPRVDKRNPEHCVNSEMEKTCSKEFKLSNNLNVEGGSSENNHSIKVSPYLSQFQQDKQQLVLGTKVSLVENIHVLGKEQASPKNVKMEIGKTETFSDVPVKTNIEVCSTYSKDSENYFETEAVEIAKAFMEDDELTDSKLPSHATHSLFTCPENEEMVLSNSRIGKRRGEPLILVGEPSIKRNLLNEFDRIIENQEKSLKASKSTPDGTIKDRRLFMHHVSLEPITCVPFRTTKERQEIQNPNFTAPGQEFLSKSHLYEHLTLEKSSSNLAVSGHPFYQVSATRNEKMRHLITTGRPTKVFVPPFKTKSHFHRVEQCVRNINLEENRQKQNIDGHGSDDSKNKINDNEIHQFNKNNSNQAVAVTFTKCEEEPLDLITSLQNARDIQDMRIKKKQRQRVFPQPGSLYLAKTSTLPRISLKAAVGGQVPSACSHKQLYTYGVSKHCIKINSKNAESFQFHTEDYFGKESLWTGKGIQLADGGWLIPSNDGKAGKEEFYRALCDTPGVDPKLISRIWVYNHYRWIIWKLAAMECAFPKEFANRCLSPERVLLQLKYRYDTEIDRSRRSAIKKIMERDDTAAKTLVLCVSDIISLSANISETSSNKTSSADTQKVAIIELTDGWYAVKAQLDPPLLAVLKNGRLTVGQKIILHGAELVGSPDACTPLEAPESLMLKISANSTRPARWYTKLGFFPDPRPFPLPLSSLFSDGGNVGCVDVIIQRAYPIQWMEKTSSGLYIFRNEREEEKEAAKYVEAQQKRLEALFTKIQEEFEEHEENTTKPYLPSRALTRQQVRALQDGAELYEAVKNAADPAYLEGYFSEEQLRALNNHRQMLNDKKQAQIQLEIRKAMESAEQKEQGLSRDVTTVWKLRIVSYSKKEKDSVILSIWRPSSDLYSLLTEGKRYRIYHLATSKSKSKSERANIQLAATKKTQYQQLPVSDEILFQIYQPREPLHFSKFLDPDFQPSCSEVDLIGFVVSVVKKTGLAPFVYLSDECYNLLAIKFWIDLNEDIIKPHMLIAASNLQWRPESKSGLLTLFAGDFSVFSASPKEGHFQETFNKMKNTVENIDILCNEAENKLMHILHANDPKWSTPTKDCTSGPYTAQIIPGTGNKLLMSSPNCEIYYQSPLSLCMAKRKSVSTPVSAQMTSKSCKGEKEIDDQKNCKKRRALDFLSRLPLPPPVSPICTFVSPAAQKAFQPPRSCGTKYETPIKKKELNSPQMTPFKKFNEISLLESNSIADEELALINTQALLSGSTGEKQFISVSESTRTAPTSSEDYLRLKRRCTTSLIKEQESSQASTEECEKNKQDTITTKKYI

[3] = molecular target: T1, BRCA2-C2 (residues 966-3418)-eGFP (human, UniProt P51587 966-3418); experiment: single-molecule confocal fluorescence imaging with dual optical trapping (C-trap); BRCA2-eGFP (full length or truncation) and 20 nM RAD51(A647) moving together on lambda dsDNA held at 10 pN; 50 mM Tris-HCl pH 7.5, 50 mM NaCl or as indicated (25-150 mM), 2 mM MgCl2, 2 mM ATP, 0.2 mg/ml BSA; conditions: both partners purified
T1 construct: BRCA2, human, residues 966-3418 (BRC repeats 1-8, C-DBD, TR2, full exC-DBR; lacks N-DBD); source: High Five insect cells, baculovirus (pFBDM-BRCA2-C2, MultiBac), purified (StrepTrap, Heparin); not shown: eGFP, C-terminal, kept

[4] = molecular target: T2, BRCA2-N (residues 1-2142)-eGFP (human, UniProt P51587 1-2142); experiment: as above; conditions: both partners purified
T2 construct: BRCA2, human, residues 1-2142 (N-DBD and BRC repeats 1-8; lacks C-DBD, TR2 and exC-DBR); also called N-DBD-BRC1-8 truncated protein; source: High Five insect cells, baculovirus (pFBDM-BRCA2-N, MultiBac), purified (StrepTrap, Heparin); not shown: eGFP, C-terminal, kept

[5] = molecular target: T3, full-length human BRCA2-eGFP (human, UniProt P51587 1-3418); experiment: single-molecule confocal fluorescence imaging with dual optical trapping (C-trap); 5 nM BRCA2-eGFP and 25 nM RAD51(A647) together in solution; order of their arrival on gapped lambda DNA held between beads; 50 mM Tris-HCl pH 7.5, 100 mM NaCl, 2 mM MgCl2, 1 mM CaCl2, 2 mM ATP, 0.2 mg/ml BSA; with or without 1.25 nM RPA; conditions: both partners purified
T3 construct: breast cancer susceptibility protein 2 (BRCA2), human, full length, 3,418 amino acids; Sf9 codon-optimised gene; Order on the chain: BRCA2, (alanine)8 linker, monomeric eGFP A207K (so in the source), Flag3; Eluted from FLAG resin with Flag3 peptide; no tag cleavage is described; also called BRCA2 fl; fl BRCA2; source: Sf9 insect cells, baculovirus (pFB-BRCA2-eGFP), purified (FLAG M2 agarose, SP …)

[6] = molecular target: B1; experiment: single-molecule confocal fluorescence imaging with dual optical trapping (C-trap); BRCA2-eGFP (full length or truncation) and 20 nM RAD51(A647) moving together on lambda dsDNA held at 10 pN; 50 mM Tris-HCl pH 7.5, 50 mM NaCl or as indicated (25-150 mM), 2 mM MgCl2, 2 mM ATP, 0.2 mg/ml BSA; conditions: both partners purified
BRCA2-eGFP = BRCA2-eGFP (Homo sapiens, UniProt P51587 1-3418); experiment: EMSA; retains high ssDNA affinity; EMSA: 4 nM Cy5-DNA, 20 mM HEPES pH 7.5, 1 mM MgCl2, 1 mM TCEP, 100 mM KCl, 24 C, 5 min; single-molecule (Fig 1): 100 mM NaCl, 2 mM MgCl2, 1 mM CaCl2, 2 mM ATP; conditions: protein: recombinant; tags: C-terminal Ala8 linker, eGFP(A207K), Flag3; label: 5'-Cy5 on strand 1; 42 bp duplex, 3' overhang on strand 1

For gapped lambda DNA (gDNA), ssDNA gap, the binding signal (nuclei knt-1 min-1 (nucleation rate)) ([1]; 1.25 nM RPA, 2 mM ATP) was 0.003, the binding signal (nuclei knt-1 min-1 (nucleation rate)) ([1]; 25 nM RAD51, 2 mM ATP, no RPA) was 0.277 and the binding signal (s (cluster dwell time)) ([1]; no BRCA2) was 27.2. The binding signal (fold nucleation rate vs RAD51 alone) ([2]; 5 nM BRCA2-eGFP, 25 nM RAD51, 2 mM ATP, no RPA, biotinylated hairpin end caps) was 2.7 and the binding signal (s (RAD51 cluster dwell time)) ([2]; with BRCA2-eGFP, biotinylated hairpin end caps) was 102.

“lambda dsDNA (including dsDNA arms of gDNA)” gave a binding signal (um2 s-1 (1D diffusion coefficient)) ([2]; sliding on dsDNA, biotinylated ends) of 0.04.

B1: binds [3]; binds [4]; binds [5].

B2: binds [6].

B3: binds (BRCA2-eGFP).
